Source: patent US20190153113A1, “CD39 VASCULAR ISOFORM TARGETING AGENTS” (INNATE PHARMA, priority 2015, published 2019)
Substitutions are numbered along the chain they refer to. Names may count otherwise. Blank lines part the entries; values can stand above or below the molecule they belong to.

Legend:
[1] = biological target: T1, Human CD39 (vascular CD39, NTPDase1, ENTPD1) expressed at the cell surface (human, UniProt P49961 1-510); experiment: cell-based or functional assay
T1 sequence: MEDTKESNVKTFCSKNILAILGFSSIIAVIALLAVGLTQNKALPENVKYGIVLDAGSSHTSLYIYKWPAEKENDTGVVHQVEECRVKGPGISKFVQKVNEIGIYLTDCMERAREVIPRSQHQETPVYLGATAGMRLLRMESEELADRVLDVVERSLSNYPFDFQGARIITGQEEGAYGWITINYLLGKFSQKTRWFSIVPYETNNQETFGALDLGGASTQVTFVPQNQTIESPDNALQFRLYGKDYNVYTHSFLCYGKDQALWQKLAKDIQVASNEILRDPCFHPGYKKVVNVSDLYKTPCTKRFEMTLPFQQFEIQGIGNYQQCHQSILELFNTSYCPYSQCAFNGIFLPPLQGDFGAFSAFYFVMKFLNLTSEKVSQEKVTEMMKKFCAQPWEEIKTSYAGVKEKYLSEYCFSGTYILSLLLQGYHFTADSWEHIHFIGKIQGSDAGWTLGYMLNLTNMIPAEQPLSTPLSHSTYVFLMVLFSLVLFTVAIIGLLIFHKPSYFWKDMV

[2] = biological target: T2, CD39 mutant 2A (V81S, E82A, R111A, V115A) (human, UniProt P49961 1-510); experiment: flow cytometry, HEK293T cells transfected with mutant 2A
T2 construct: Transfected in HEK293T cells
T2 chain: T1 sequence with V81S, E82A, R111A, V115A

CD39-L2 = biological target: T3, CD39-L2 (Homo sapiens, UniProt O75354, K202E); experiment: ELISA titration on recombinant human CD39 isoforms; assay type: binding; details: recombinant protein coated
T3 sequence (O75354 1-484 K202E): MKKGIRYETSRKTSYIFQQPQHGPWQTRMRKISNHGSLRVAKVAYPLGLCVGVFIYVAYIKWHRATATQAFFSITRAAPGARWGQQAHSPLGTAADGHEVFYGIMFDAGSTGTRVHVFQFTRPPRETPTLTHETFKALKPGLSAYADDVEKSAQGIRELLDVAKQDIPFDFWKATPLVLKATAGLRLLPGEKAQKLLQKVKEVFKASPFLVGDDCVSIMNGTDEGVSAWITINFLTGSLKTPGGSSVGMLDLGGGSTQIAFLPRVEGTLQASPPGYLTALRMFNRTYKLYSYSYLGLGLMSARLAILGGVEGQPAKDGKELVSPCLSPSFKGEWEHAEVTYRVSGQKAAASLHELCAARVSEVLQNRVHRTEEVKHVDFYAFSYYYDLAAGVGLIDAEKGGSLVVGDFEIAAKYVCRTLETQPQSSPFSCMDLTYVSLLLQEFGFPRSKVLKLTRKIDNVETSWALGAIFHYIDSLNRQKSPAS
Procedure: (§1) Wells were washed in TBS Tween 20, and further saturated 2H at RT in TBS Blocking buffer. Dose range concentration of primary antibody was incubated in TBS blocking buffer for 2h at RT. Wells were washed in TBS Tween 20. […] Optical density was measured on Enspire at OD=450.

CD39-L3 = biological target: T4, CD39-L3 (Homo sapiens, UniProt O75355); experiment: ELISA titration on recombinant human CD39 isoforms; assay type: binding; details: recombinant protein coated
T4 sequence (O75355 1-529): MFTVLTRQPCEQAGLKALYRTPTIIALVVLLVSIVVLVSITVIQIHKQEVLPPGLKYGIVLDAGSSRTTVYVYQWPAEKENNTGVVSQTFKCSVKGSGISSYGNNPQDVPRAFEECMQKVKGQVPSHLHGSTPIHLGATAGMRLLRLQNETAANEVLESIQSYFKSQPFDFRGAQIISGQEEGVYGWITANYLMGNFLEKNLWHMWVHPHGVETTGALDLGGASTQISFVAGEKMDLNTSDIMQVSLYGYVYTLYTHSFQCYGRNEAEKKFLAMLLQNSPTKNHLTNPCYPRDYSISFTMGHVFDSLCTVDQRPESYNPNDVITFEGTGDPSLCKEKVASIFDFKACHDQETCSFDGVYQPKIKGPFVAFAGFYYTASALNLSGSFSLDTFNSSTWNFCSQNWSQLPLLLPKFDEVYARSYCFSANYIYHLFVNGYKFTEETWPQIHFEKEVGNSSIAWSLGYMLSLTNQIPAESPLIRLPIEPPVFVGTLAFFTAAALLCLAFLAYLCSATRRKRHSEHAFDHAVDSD
Procedure: as §1

vascular CD39 = biological target: T5, vascular CD39 (Homo sapiens, UniProt P49961); experiment: ELISA titration on recombinant human CD39 isoforms; assay type: binding; details: recombinant protein coated
T5 construct: recombinant human CD39-M2 extracellular domain recombinant protein; made in house; host or cells: CHO cells (secreted, purified from supernatant)
T5 sequence (P49961 38-478 limits assumed): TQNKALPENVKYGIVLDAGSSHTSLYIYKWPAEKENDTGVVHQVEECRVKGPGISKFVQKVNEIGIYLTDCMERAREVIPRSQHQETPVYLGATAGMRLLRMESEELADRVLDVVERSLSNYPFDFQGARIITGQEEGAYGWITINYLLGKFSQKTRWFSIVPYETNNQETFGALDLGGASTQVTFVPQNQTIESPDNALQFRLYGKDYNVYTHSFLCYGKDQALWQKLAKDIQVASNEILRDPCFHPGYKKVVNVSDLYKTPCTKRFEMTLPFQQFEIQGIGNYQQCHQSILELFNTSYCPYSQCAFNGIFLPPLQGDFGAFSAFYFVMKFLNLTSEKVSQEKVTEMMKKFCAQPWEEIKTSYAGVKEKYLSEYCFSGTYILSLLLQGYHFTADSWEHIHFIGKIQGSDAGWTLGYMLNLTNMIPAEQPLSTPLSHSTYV
Procedure: as §1

- EC50 (inhibition of 50% of the enzymatic activity of CD39 expressed by 100,000 Ramos cells), AMP generated, Maldi TOF [1]: 1.2 nM
- binding result [2]: binds
B1: Antibody I-391, Fc silent recombinant chimeric human IgG1 with heavy chain N297Q mutation (antibody, V domains shown)
VH: QIQLVQSGPELKKPGETVKISCKASGYTFRNYGMNWVKQAPGKGLKWMGWINTYTGEPTYADDFKGRFAFSLATSASTAYLQISNLKNEDTATYFCARKAYYGSNYYFDYWGQGTTLTVSS
VL: DIVMTQSHKFMSTSVGDRVSITCKASQDVSTAVAWYQQKPGQSPKLLIYSASYRYTGVPDRFTGSGSGTDFTFTISTVQAEDLAVYYCQQHYTTPPYTFGGGTKLEIKR

- binding to CD39-L2 (CD39-L2): not to any of the CD39 isoforms
- binding to CD39-L3 (CD39-L3): not to any of the CD39 isoforms
- binding to vascular CD39 (vascular CD39): bound to the vascular CD39
B2: I-392: anti-CD39 antibody, VH SEQ ID NO: 8 and VL SEQ ID NO: 9, chimeric human IgG1 with N297Q mutation (antibody, V domains shown)
VH: QIQLVQSGPEVKKPRETVKISCKASGYTFTHYGMNWVKQAPGKGLKWMGWINTYTGEPTYADDFKGRFAFSLEASASTAYLQINNLKNEDTATYFCARRRYEGNYVFYYFDYWGQGTTLTVSS
VL: DIQMTQSPASLSASVGETVTITCRASENIYSYFSWYQQKQGKSPQLLVYTAKTLAEGVPSRFSGSGSGTQFSLKINSLQPEDFGSYYCQHHYVTPYTFGGGTKLEIK
